± gives the standard error. Variants at the floor of the assay were thinned out.
B1: glmS ribozyme (parent)
chain: AUAAAAGCGCCAGAACUACAGAAAUGUAGUUGACGAGGAGGAGGUUUAUCGAAUUUUCGGCGGAUGCCUCCAAA

Columns and labels:
Details in all cases: with glucosamine-6-phosphate
glucosamine-6-phosphate [1] = variants of: B1; experiment: self-cleavage kobs at 40 uM GlcN6P; higher = faster cleavage; RNA array
Procedure, shortened: (§1)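 Barcoded ribozyme variants, transcribed in situ by E. coli RNA polymerase on sequenced MiSeq chips, were followed via a hybridised Cy3 probe at 37 °C. Glucosamine-6-phosphate ranged from 40 μM to 10 mM in HEPES/KCl/Mg(OAc)2 buffer. kobs came from decay fits to per-tile medians, and kcat and KM from weighted Michaelis–Menten fits.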

glucosamine-6-phosphate [2] = variants of: B1; experiment: self-cleavage kobs at 160 uM GlcN6P; higher = faster cleavage; RNA array
Procedure, shortened: as §1

glucosamine-6-phosphate [3] = variants of: B1; experiment: self-cleavage kobs at 640 uM GlcN6P; higher = faster cleavage; RNA array
Procedure, shortened: as §1

glucosamine-6-phosphate [4] = variants of: B1; experiment: self-cleavage kobs at 2500 uM GlcN6P; higher = faster cleavage; RNA array
Procedure, shortened: as §1

glucosamine-6-phosphate [5] = variants of: B1; experiment: self-cleavage kobs at 10000 uM GlcN6P; higher = faster cleavage; RNA array
Procedure, shortened: as §1

Variant	self-cleavage kobs at 40 uM GlcN6P (glucosamine-6-phosphate [1]) [s⁻¹]	self-cleavage kobs at 160 uM GlcN6P (glucosamine-6-phosphate [2]) [s⁻¹]	self-cleavage kobs at 640 uM GlcN6P (glucosamine-6-phosphate [3]) [s⁻¹]	self-cleavage kobs at 2500 uM GlcN6P (glucosamine-6-phosphate [4]) [s⁻¹]	self-cleavage kobs at 10000 uM GlcN6P (glucosamine-6-phosphate [5]) [s⁻¹]
G7A A52U A64G C71A	< 1e-05	< 1e-05	< 1e-05	< 1e-05	–
C8G C34U U55G	< 1e-05	–	–	–	< 1e-05
G7U U55G	< 1e-05	< 1e-05	–	–	< 1e-05
G7C C71G	< 1e-05	–	–	< 1e-05	< 1e-05
G7U C34A	< 1e-05	< 1e-05	< 1e-05	–	< 1e-05
G7U G63A	< 1e-05	–	–	–	< 1e-05
C8A C68A	< 1e-05	< 1e-05	< 1e-05	< 1e-05	–
C8A A48C	< 1e-05	< 1e-05	< 1e-05	< 1e-05	< 1e-05
G7U G35U U46A C67U U69C	< 1e-05	< 1e-05	< 1e-05	< 1e-05	–
G7U U45G	< 1e-05	< 1e-05	< 1e-05	< 1e-05	< 1e-05
G7U U45C	< 1e-05	< 1e-05	< 1e-05	< 1e-05	< 1e-05
C8A C11U G38C C50U	< 1e-05	–	< 1e-05	< 1e-05	–
C8A A42G C68U	< 1e-05	–	–	–	< 1e-05
G7A C34G U56C	< 1e-05	–	–	–	–
C8A A14G C58U	< 1e-05	–	–	–	< 1e-05
C8A C34G	< 1e-05	< 1e-05	< 1e-05	< 1e-05	< 1e-05
C8G C50G	0.000322 ± 0.00014	0.000106 ± 2.1e-05	0.00014 ± 3.4e-05	0.000123 ± 2.4e-05	0.000242 ± 7.8e-05
C8G C50U	< 1e-05	< 1e-05	< 1e-05	< 1e-05	< 1e-05
G7C G29U G32U A64C	< 1e-05	–	–	–	–
C8A U47C U65A	< 1e-05	–	–	–	–
A6U C16U U47A G63U	< 1e-05	–	–	–	< 1e-05
C8A G38U C50G	4.1e-05 ± 2e-05	–	–	–	–
G7C C16G U47A	< 1e-05	< 1e-05	–	< 1e-05	< 1e-05
A6U C11U G13A	< 1e-05	–	–	–	< 1e-05

Variant	self-cleavage kobs at 40 uM GlcN6P (glucosamine-6-phosphate [1]) [s⁻¹]	self-cleavage kobs at 160 uM GlcN6P (glucosamine-6-phosphate [2]) [s⁻¹]	self-cleavage kobs at 640 uM GlcN6P (glucosamine-6-phosphate [3]) [s⁻¹]	self-cleavage kobs at 2500 uM GlcN6P (glucosamine-6-phosphate [4]) [s⁻¹]	self-cleavage kobs at 10000 uM GlcN6P (glucosamine-6-phosphate [5]) [s⁻¹]
G7U U57A	< 1e-05	< 1e-05	< 1e-05	–	< 1e-05
G7U G37A	< 1e-05	–	–	–	< 1e-05
A6U G7U A15U U30G G40A	< 1e-05	–	–	–	< 1e-05
C8A A53G G63A	< 1e-05	–	< 1e-05	–	–
C8G C67U	< 1e-05	< 1e-05	< 1e-05	< 1e-05	–
G7C G51U	< 1e-05	< 1e-05	< 1e-05	< 1e-05	< 1e-05
G7U G32A G43A	< 1e-05	< 1e-05	< 1e-05	–	< 1e-05
G7U C10G A12U U65G C68G	7.58e-05 ± 2.2e-05	–	–	–	5.57e-05 ± 1.5e-05
G7U U30G C50G C61A	0.000244 ± 8.9e-05	–	–	–	0.000292 ± 7.4e-05
G7U A14U	< 1e-05	< 1e-05	< 1e-05	–	< 1e-05
G7U A14G	< 1e-05	< 1e-05	< 1e-05	–	< 1e-05
G7A G40A A53G G60C C68U	< 1e-05	–	< 1e-05	< 1e-05	–
G7U A33U A52G	< 1e-05	–	–	–	–
G7A C58U C68G	0.000285 ± 7.7e-05	–	–	–	–
A6U C10A G38U	< 1e-05	–	–	–	< 1e-05
C8A G51U C61U	< 1e-05	< 1e-05	< 1e-05	< 1e-05	–
C8A G38C C71A	< 1e-05	–	< 1e-05	–	–
C8A G32U	< 1e-05	< 1e-05	< 1e-05	–	< 1e-05
G7U G41U U46A G62U	< 1e-05	–	< 1e-05	< 1e-05	< 1e-05
G7A C8U	< 1e-05	–	–	–	–
G7A C8G	< 1e-05	< 1e-05	< 1e-05	< 1e-05	< 1e-05
C8A A53C G59A C68A	< 1e-05	–	–	–	< 1e-05
C8A G41U C50G	< 1e-05	–	–	–	–
A6U G44A C70U	< 1e-05	–	–	–	–

Variant	self-cleavage kobs at 40 uM GlcN6P (glucosamine-6-phosphate [1]) [s⁻¹]	self-cleavage kobs at 160 uM GlcN6P (glucosamine-6-phosphate [2]) [s⁻¹]	self-cleavage kobs at 640 uM GlcN6P (glucosamine-6-phosphate [3]) [s⁻¹]	self-cleavage kobs at 2500 uM GlcN6P (glucosamine-6-phosphate [4]) [s⁻¹]	self-cleavage kobs at 10000 uM GlcN6P (glucosamine-6-phosphate [5]) [s⁻¹]
A6U G7U C10A G29A C34A C67G C68A C71U	9.49e-05 ± 2.1e-05	–	6.07e-05 ± 1.4e-05	–	3.01e-05 ± 1.4e-05
G7U C58G C68G	0.000149 ± 4.5e-05	0.000633 ± 0.00028	0.00042 ± 0.00015	0.00158 ± 0.00066	0.000116 ± 2.5e-05
C8A C10A C34U G60A	< 1e-05	–	–	–	–
C8G G9A G29U U56A A64G C70A	< 1e-05	–	–	–	–
C8A A14G	< 1e-05	–	< 1e-05	–	–
C8G G13A G37U G44C A53U G63U	< 1e-05	–	–	–	–
G7A C67G	< 1e-05	–	< 1e-05	< 1e-05	–
G7C C10U A15U U49C	< 1e-05	–	–	–	< 1e-05
C8A G38A	< 1e-05	< 1e-05	< 1e-05	< 1e-05	< 1e-05
G7U C16G G59A	< 1e-05	–	< 1e-05	–	< 1e-05
G7A C58A C67G	5.23e-05 ± 2.2e-05	–	–	–	–
G7C A14U	< 1e-05	< 1e-05	< 1e-05	< 1e-05	–
C8A G9U	< 1e-05	< 1e-05	< 1e-05	< 1e-05	< 1e-05
C8A A15G G60A	< 1e-05	–	< 1e-05	< 1e-05	–
A6U G51A	< 1e-05	–	–	–	< 1e-05
G7U G9C	< 1e-05	< 1e-05	< 1e-05	< 1e-05	< 1e-05
G7U G37C A39C G62C	< 1e-05	–	–	–	–
C8A C10U C34G	< 1e-05	–	–	–	–
A6U C34U	< 1e-05	< 1e-05	< 1e-05	–	< 1e-05
A6U C34A	< 1e-05	< 1e-05	< 1e-05	< 1e-05	< 1e-05
G7A A39C A52U G60A C67U	< 1e-05	–	–	–	–
C8A A15G U54A	< 1e-05	–	–	–	< 1e-05
G7A G38U C58A	< 1e-05	–	–	–	< 1e-05
G7U A12C G29C	< 1e-05	< 1e-05	< 1e-05	< 1e-05	–

Variant	self-cleavage kobs at 40 uM GlcN6P (glucosamine-6-phosphate [1]) [s⁻¹]	self-cleavage kobs at 160 uM GlcN6P (glucosamine-6-phosphate [2]) [s⁻¹]	self-cleavage kobs at 640 uM GlcN6P (glucosamine-6-phosphate [3]) [s⁻¹]	self-cleavage kobs at 2500 uM GlcN6P (glucosamine-6-phosphate [4]) [s⁻¹]	self-cleavage kobs at 10000 uM GlcN6P (glucosamine-6-phosphate [5]) [s⁻¹]
G7U G29A A48G	< 1e-05	–	–	–	< 1e-05
A6U G41A A42U	< 1e-05	–	–	–	< 1e-05
G7U G37A C58U U69G	7.21e-05 ± 2.9e-05	–	–	–	–
G7U C19A A36G A39C	< 1e-05	–	–	–	< 1e-05
G7A G9C C16G	< 1e-05	< 1e-05	< 1e-05	–	< 1e-05
C8A A53G	< 1e-05	< 1e-05	< 1e-05	< 1e-05	< 1e-05
G7A G13A C68U	< 1e-05	–	–	–	–
C8G G9U	< 1e-05	–	< 1e-05	< 1e-05	–
C8A G41U	< 1e-05	< 1e-05	< 1e-05	< 1e-05	< 1e-05
G7A U31A	< 1e-05	–	< 1e-05	–	–
G7U G35U G38U G59C	< 1e-05	–	–	–	< 1e-05
G7U G32U C67G	< 1e-05	–	–	< 1e-05	< 1e-05
G7A A36C	< 1e-05	< 1e-05	–	–	< 1e-05
G7A A36U	< 1e-05	< 1e-05	< 1e-05	< 1e-05	–
G7U G51A	< 1e-05	< 1e-05	–	< 1e-05	< 1e-05
G7A G32U U47G C50U G63A C67G	0.000556 ± 0.00014	–	–	–	0.000988 ± 0.00041
A6U U57G	< 1e-05	–	–	–	–
A6U G35C C61U	< 1e-05	–	–	–	–
C8G C11A C50G	0.000193 ± 4.9e-05	–	–	–	–
G7C A12U G38U G40C U49G U56G	< 1e-05	–	–	–	–
G7U C10A G60U	< 1e-05	< 1e-05	–	< 1e-05	–
G7U C8A U47G G60U	< 1e-05	–	–	–	< 1e-05
G7A U30A U45C	< 1e-05	–	–	< 1e-05	< 1e-05

— the supplement of paper PMC7125110
